We go through 15 molecules from US20110053865A1 (Ablynx, published 2011).

Values joined by “and” are separate entries in the source; they are usually repeats but may differ in a detail not shown here. Identical values can stand only once. Like-named read-outs stand apart in the source and are kept apart here.

For test [1], the target named is T1, recombinant human IL-23 (p19/p40) (human, UniProt Q9NPF7 20-189; P29460 23-328).
T1 sequence (looked up) 1: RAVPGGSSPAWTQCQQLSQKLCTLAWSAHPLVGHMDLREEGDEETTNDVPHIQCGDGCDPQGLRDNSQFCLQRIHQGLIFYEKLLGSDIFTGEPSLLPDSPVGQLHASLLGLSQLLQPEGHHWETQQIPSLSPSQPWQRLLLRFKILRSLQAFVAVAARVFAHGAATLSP
T1 sequence (looked up) 2: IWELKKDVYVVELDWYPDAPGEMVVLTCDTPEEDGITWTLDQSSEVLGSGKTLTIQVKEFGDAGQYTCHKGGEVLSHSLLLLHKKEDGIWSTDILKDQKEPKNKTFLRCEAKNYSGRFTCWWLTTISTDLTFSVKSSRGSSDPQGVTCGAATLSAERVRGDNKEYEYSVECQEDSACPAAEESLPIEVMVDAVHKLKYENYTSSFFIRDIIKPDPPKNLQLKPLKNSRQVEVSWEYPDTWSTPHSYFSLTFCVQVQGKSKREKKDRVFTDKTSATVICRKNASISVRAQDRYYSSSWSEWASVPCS
Put plainly: cell-based or functional assay.

The target in test [2] is T1, recombinant human IL-23 (p19/p40). As to the kind of experiment: cell-based or functional assay. This is another data set of the same source.
Test [3] shares this target. Put plainly: cell-based or functional assay. The source holds these as a separate data set.
The target is the same in test [4]. Put plainly: SPR Biacore, hIL-23 on chip. Background: Surface plasmon resonance follows binding to a sensor surface in real time, without labels.
Protocol: (§1) Nanobody binding was assessed at one concentration (100 nM). Each Nanobody was injected for 4 minutes at a flow rate of 45 μl/min to allow binding to chip-bound antigen. Next, binding buffer without Nanobody was sent over the chip at the same flow rate to allow spontaneous dissociation of bound Nanobody.
Test [5] has the same target. As to the kind of experiment: cell-based or functional assay. This is another data set of the same source.
Test [6] concerns the target cynomolgus IL-23 (cynomolgus). Put plainly: cell-based or functional assay.
Test [7] has as its target T2, recombinant human IL-12 (human, UniProt P29459 23-219; P29460 23-328).
T2 sequence (looked up) 1: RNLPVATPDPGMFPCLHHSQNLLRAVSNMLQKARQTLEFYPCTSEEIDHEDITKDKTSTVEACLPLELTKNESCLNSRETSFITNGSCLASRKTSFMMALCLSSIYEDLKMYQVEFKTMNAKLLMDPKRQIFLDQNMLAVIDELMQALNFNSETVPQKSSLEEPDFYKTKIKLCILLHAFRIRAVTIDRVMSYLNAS
T2 sequence (looked up) 2: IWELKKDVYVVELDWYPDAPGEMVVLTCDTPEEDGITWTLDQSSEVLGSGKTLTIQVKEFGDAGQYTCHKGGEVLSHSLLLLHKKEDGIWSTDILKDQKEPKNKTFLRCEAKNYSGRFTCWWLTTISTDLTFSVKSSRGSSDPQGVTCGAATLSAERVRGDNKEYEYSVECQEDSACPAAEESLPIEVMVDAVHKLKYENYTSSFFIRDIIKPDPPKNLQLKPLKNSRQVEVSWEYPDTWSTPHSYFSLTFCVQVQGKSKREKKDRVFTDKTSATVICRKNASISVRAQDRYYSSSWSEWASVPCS
As to the kind of experiment: cell-based or functional assay.

Test [8] concerns the target T1, recombinant human IL-23 (p19/p40). Put plainly: SPR Biacore, hIL-23 on chip. This is another data set of the same source.
Protocol: as §1
Test [9] addresses T3, cynomolgus IL-23 (cynomolgus).
T3 construct: also called cyno IL-23; cIL-23
As to the kind of experiment: SPR Biacore, cyno IL-23 on chip.

Test [10] concerns the target T2, recombinant human IL-12. As to the kind of experiment: alpha-screen, hIL-12/IL12Rbeta1-Fc. In general terms: In Alpha technology, singlet oxygen from a donor bead excites a nearby acceptor bead.
Protocol: Human IL-23R-Fc chimera and hIL12Rbeta1-Fc chimera (R&D Systems, Minneapolis, Minn., US) were coupled to acceptor beads according to manufacturer instructions (Perkin Elmer, Waltham, Mass., US).
To this mixture, the IL12Rbeta1 acceptor beads and the streptavidin donor beads were added and further incubated for 1 hour at RT.
Test [11] addresses T1, recombinant human IL-23 (p19/p40). Put plainly: SPR Biacore, hIL-23.
For test [12], the target named is T3, cynomolgus IL-23. As to the kind of experiment: SPR Biacore, cyno IL-23 on chip. The source holds these as a separate data set.
Test [13] has as its target T3, cynomolgus IL-23. Put plainly: cell-based or functional assay. The source holds these as a separate data set.
The target in test [14] is T1, recombinant human IL-23 (p19/p40). Put plainly: cell-based or functional assay. This is another data set of the same source.

B1: P23IL-121A2-35GS-81G2 (bispecific antibody)
chain: EVQLVESGGGLVQAGGSLRLSCAASGSIFNFNYMGWFRQAPGKEREFVAAIRWSGSSTYYADSVKGRFTISRDDAKNTVALQMNSLKPEDTAIYYCALRKGIPYSTSDRVIKGVNDYDYWGQGTQVTVSSGGGGSGGGGSGGGGSGGGGSGGGGSGGGGSGGGGSEVQLVESGGGLVQPGGSLRLSCIASGLPFSTKSMGWFRQAPGKEREFVARISPGGTSRYYGDFVKGRFAISRDNAKNTTWLQMNSLKAEDTAVYYCASGERSTYIGSNYYRTNEYDYWGTGTQVTVSS
Turning to B1, in test [1], the “IC50, splenocyte assay (mIL-17)” value is approximately 0.09 nM. Also, the “IC50, splenocyte assay, 19 pM hIL-23” value in test [2] turned out to be 94 pM; in [3], 154 pM.

B2: P23IL 20F2 (VHH)
VHH: EVQLVESGGGLVQPGGSLRLSCAASGFSLDYTAIGWFRQAPGKEREVVSCFTSVPGSTYHADSVKGRFTIASDNAKNTVYLQMNDLKPEDTAVYYCATDAQTYYSGSYCGRTPQEYPYWGQGTQVTVSS
notes: p40- Nanobody
One may read the koff as a measure of how fast the partners let go of each other. Turning to B2, the koff in [4] was 0.00054 s⁻¹.

B3: P23IL-121A2 (VHH)
VHH: EVQLVESGGGLVQAGGSLRLSCAASGSIFNFNYMGWFRQAPGKEREFVAAIRWSGSSTYYADSVKGRFTISRDDAKNTVALQMNSLKPEDTAIYYCALRKGIPYSTSDRVIKGVNDYDYWGQGTQVTVSS
B3: the “IC50, splenocyte assay (mIL-17)” value in test [1] is approximately 1.5 nM.

B4: P23IL-23H3 (VHH)
VHH: EVQLVESGGGLVQAGDSLRLSCAASGRSFSNDAMGWFRQAPGKERSFVAAINWSGELTGYAGSVKGRFTISRDGVENMVFLQMNSLVPEDTGVYYCAAVEGRDYYRGAQYYDYWGQGTQVTVSS
notes: p40+ Nanobody
In general, IC50 refers to the point on the concentration scale where inhibition reaches its midpoint. Consider B4, for which the “IC50, mouse splenocyte assay (mIL-22)” value in test [5] amounted to 0.79 nM; in the test with cynomolgus IL-23 [6], 32.5 nM. Besides, the “IC50, PHA blast proliferation, 1 pM hIL-12” value (shortened to “IC50, PHA blast proliferation”) with recombinant human IL-12 [7] came out at 174 pM. Moreover, the koff in test [8] worked out at 0.0011 s⁻¹; with cynomolgus IL-23 [9] it was 0.00067 s⁻¹. Moreover, the IC50 with recombinant human IL-12 [10] amounted to 1.2 nM.

B5: P23IL81A12v4 (VHH)
VHH: EVQLLESGGGLVQPGGSLRLSCAASGRTLSSYAMGWFRQAPGKGREFVSRISQGGTAIYYADSVKGRFTISRDNSKNTLYLQMNSLRPEDTAVYYCAKDPSPYYRGSAYLLSGSYDSWGQGTLVTVSS
notes: Final humanization variant of 81A12
The Kd is the constant that tells how readily two partners part at equilibrium. One may read the kon as a measure of how fast the partners come together. Consider B5, for which, in test [11], the Kd worked out at 0.33 nM, the dissociation rate constant (koff) came to 0.0002 s⁻¹ and the kon came out at 600000 M⁻¹ s⁻¹.

B6: P23IL 81A1 (VHH)
VHH: EVQLVESGGGLVQTGGSLRLSCAASVINFRLADMDWYRQALGKQRELVASISTGYRTNYADFVKGRFTISRDNAKNTVYLQMDSLKPEDTAVYYCAARDLRGLRVDYWGQGTQVTVSS
In the case of B6, the koff in test [4] was determined as 0.00059 s⁻¹; in the test with cynomolgus IL-23 [12] it was 0.012 s⁻¹.

B7: P23IL119A3-35GS-81G2-GGGC-PEG40 branched (bispecific antibody)
chain: EVQLVESGGGLVQAGGSLRLSCAASGRIFSLPASGNIFNLLTIAWHRQAPGMQRELVATINSGSRTNYADSVKGRFTISRDNAQKTVYLQMNNLKPEDTAVYYCQTSGSGSPNFWGQGTQVTVSSGGGGSGGGGSGGGGSGGGGSGGGGSGGGGSGGGGSEVQLVESGGGLVQPGGSLRLSCIASGLPFSTKSMGWFRQAPGKEREFVARISPGGTSRYYGDFVKGRFAISRDNAKNTTWLQMNSLKAEDTAVYYCASGERSTYIGSNYYRTNEYDYWGTGTQVTVSSGGGC
modifications: branched mPEG40 (maleimide) on the C-terminal Cys of GGGC
Consider B7, for which the “IC50, splenocyte assay, 19 pM hIL-23” value in [3] is 5.6 pM. In addition, the “IC50, splenocyte assay, 3.8 pM cIL-23” value with cynomolgus IL-23 [13] was found to be 5.3 pM. Besides, in test [14], the “IC50, BAF3 proliferation assay, 76 pM hIL-23” value amounted to 61.2 pM.

B8: P23IL-121A2-9GS-81G2 (bispecific antibody)
chain: EVQLVESGGGLVQAGGSLRLSCAASGSIFNFNYMGWFRQAPGKEREFVAAIRWSGSSTYYADSVKGRFTISRDDAKNTVALQMNSLKPEDTAIYYCALRKGIPYSTSDRVIKGVNDYDYWGQGTQVTVSSGGGGSGGGSEVQLVESGGGLVQPGGSLRLSCIASGLPFSTKSMGWFRQAPGKEREFVARISPGGTSRYYGDFVKGRFAISRDNAKNTTWLQMNSLKAEDTAVYYCASGERSTYIGSNYYRTNEYDYWGTGTQVTVSS
On to B8, for which, in test [2], the “IC50, splenocyte assay, 19 pM hIL-23” value was 740 pM.

B9: P23IL-22E11 (VHH)
VHH: EVQLVESGGGLVQAGGSLRLSCAASGRTFSWSAVGWFRQAPGKEREFVAAIRWSGGSPYYADSVKDRFTISRDNAKNTVYLQMNSLRPEDTAVYLCGETSLFPTSRGSHYDTWGQGTQVTVSS
In the case of B9, the “IC50, mouse splenocyte assay (mIL-22)” value is 0.186 nM in test [5] and 1.27 nM with cynomolgus IL-23 [6]. In addition, in the test with recombinant human IL-12 [7], the “IC50, PHA blast proliferation” value stood at 159 pM. Further, the koff (in test [8]; with cynomolgus IL-23 [9]) was 0.00023 s⁻¹ each time. For the same molecule, in the test with recombinant human IL-12 [10], the IC50 came out at 1.3 nM.

B10: P23IL119A3-35GS-81A12 (bispecific antibody)
chain: EVQLVESGGGLVQAGGSLRLSCAASGRIFSLPASGNIFNLLTIAWHRQAPGMQRELVATINSGSRTNYADSVKGRFTISRDNAQKTVYLQMNNLKPEDTAVYYCQTSGSGSPNFWGQGTQVTVSSGGGGSGGGGSGGGGSGGGGSGGGGSGGGGSGGGGSEVQLVESGGGLVQAGGSLRLSCAASGRTLSSYAMGWFRQAPGKEREFVARISQGGTAIYYADSVKGRFTISRDNAKNTVYLQMNSLKPEDTAVYYCAKDPSPYYRGSAYLLSGSYDSWGQGTQVTVSS
With B10, the “IC50, splenocyte assay, 19 pM hIL-23” value in test [3] turned out to be 7 pM. Moreover, the “IC50, splenocyte assay, 3.8 pM cIL-23” value with cynomolgus IL-23 [13] turned out to be 5 pM.

B11: P23IL 22D10 (VHH)
VHH: EVQLVESGGGLVQAGASLRLSCAASGRTFRSYNMGWLRQAPGKEREFVATISWNAGIPYYADSVKGRFTISRDNAKNTVYLQMNSLKPEDTAVYYCAASNSWSSSARFYDYWGQGTQVTVSS
notes: p40- Nanobody
As for B11, the koff in test [4] is 0.001 s⁻¹; with cynomolgus IL-23 [12] it was 0.0001 s⁻¹.

B12: P23IL 84G1 (VHH)
VHH: EVQLVESGGGMVQAGGSLRLSCTASGLTDNSYAMGWFRRAPGKEREFLTGLTLSGGSTYYADSVKGRFTTSRDSQKNTVSLQMNSLKPEDTAVYYCAANRFGYGSAAYTPDNYNYWAQGTQVTVSS
notes: p40- Nanobody
For B12, the figures for the koff (in test [4]; in the test with cynomolgus IL-23 [12]) were 0.0002 s⁻¹ and 0.0024 s⁻¹, respectively.

B13: P23IL80D10 (VHH)
VHH: EVQLVESGGGLVQAGGSLRLSCAASGRTFEGNPMGWFRQASGKKREFVASIDWSGGITSYADSVKGRFTISRDNAKNTVYLQMNSLKPEDTAVYYCAASARFGSGSYYDLMYDYWGQGTQVTVSS
notes: p40- Nanobody
On to B13, for which the koff in test [4] is 9.7e-05 s⁻¹; with cynomolgus IL-23 [12] it was 0.000105 s⁻¹ and 7.9e-05 s⁻¹.

B14: P23IL119A3-9GS-81G2 (bispecific antibody)
chain: EVQLVESGGGLVQAGGSLRLSCAASGRIFSLPASGNIFNLLTIAWHRQAPGMQRELVATINSGSRTNYADSVKGRFTISRDNAQKTVYLQMNNLKPEDTAVYYCQTSGSGSPNFWGQGTQVTVSSGGGGSGGGSEVQLVESGGGLVQPGGSLRLSCIASGLPFSTKSMGWFRQAPGKEREFVARISPGGTSRYYGDFVKGRFAISRDNAKNTTWLQMNSLKAEDTAVYYCASGERSTYIGSNYYRTNEYDYWGTGTQVTVSS
With B14, the “IC50, splenocyte assay, 19 pM hIL-23” value in test [2] came to 1990 pM.

B15: P23IL-22D7 (VHH)
VHH: EVQLVESGGGLVQAGGSLRLSCASSGRTFSIYARGWFRQAPGKEREFVAAIRSGLTTYSDSVKGRFTISRDIAKNTVFLQMNSLKSEDTAVYYCAAAVNYFTDFTDYSKRDSYDYWGQGTQVTVSS
notes: p40+ Nanobody
In the case of B15, the results for the “IC50, mouse splenocyte assay (mIL-22)” value (in test [5]; in the test with cynomolgus IL-23 [6]) were 0.116 nM and 0.705 nM, respectively. In the test with recombinant human IL-12 [7], the “IC50, PHA blast proliferation” value turned out to be 116 pM. Also, the koff in test [8] came out at 0.00017 s⁻¹; in the test with cynomolgus IL-23 [9], 0.00023 s⁻¹. In addition, in the test with recombinant human IL-12 [10], the IC50 was found to be 1.9 nM.
